Measurements: patent publication US20030181372A1

Biological target: human paraoxonase (PON1A) (human) (UniProt P27169)
Test: cell-based or functional assay

UniProt P27169, sequence (P27169 2-355 limits assumed): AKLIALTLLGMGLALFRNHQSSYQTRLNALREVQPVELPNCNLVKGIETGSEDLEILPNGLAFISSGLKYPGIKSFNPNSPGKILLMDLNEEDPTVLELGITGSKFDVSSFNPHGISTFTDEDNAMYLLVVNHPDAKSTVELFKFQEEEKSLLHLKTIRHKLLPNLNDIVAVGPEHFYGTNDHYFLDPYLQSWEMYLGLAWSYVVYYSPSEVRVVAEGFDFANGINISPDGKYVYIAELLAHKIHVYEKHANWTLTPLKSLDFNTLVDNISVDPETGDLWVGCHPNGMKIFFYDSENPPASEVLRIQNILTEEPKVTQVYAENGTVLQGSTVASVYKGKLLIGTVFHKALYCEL

Row | Substance | arylesterase activity, CHO-PON cells cultured 24 h with 10 µg/mL ApoA-I (U/mg cell protein) | increase in arylesterase activity compared to ApoA-IWT | also measured
1 | recombinant human ApoA-I wild type (His-6 tagged) | 0.095 |  | ApoA-I concentration at which secreted PON activity is maximal (CHO-PON cell medium): 12 µg/mL; PON activity of baseline conditioned medium incubated 3 h at 37° C. with 10 µg/mL lipid-free ApoA-I postculture (relative to baseline): 94.4%; PON activity of cells grown with 10 µg/mL ApoA-I over cells grown without ApoA-I: 203%; arylesterase activity in medium at 24 h, CHO-PON cells in the presence of 10 µg/mL ApoA-I (unit/mg of cell protein): 0.087; increase in arylesterase activity on culturing CHO-PON cells with ApoA-I: 2.1 fold
2 | recombinant human ApoA-I R151C (ApoA-IParis) |  |  | secreted PON arylesterase activity, CHO-PON cells cultured 24 h with 10 µg/mL ApoA-I (U/mg cell protein): 0.086
3 | recombinant human ApoA-I R173C (ApoA-IMilano) |  |  | secreted PON arylesterase activity, CHO-PON cells cultured 24 h with 10 µg/mL ApoA-I (U/mg cell protein): 0.076
4 | recombinant human ApoA-I K96C | 0.067 |  | reduction in arylesterase activity compared to ApoA-IWT: 30%

Second part, led by results:

Row | arylesterase activity, CHO-PON cells cultured 24 h with 10 µg/mL ApoA-I (U/mg cell protein) | increase in arylesterase activity compared to ApoA-IWT | Substance | also measured
5 | 0.126 | 30% | recombinant human ApoA-I R10C | 
6 | 0.125 | 30% | recombinant human ApoA-I R27C | 
7 | 0.121 | 30% | recombinant human ApoA-I R61C | 
